Our source for the ELISA signal and relative binding values is patent publication US20020031761A1, “Binding moieties for human parvovirus B19” (priority 1998, published 2002).

No end group written: not given here.

For test [1], the target named is VP1-VP2 (purified, recombinant B19 capsid proteins VP1 and VP2) (Human parvovirus B19, UniProt P07299). Briefly: ELISA of individual phage isolates for binding to VP1-VP2. Conditions: phage isolate 10^9 pfu per well; VP1-VP2 2 μl per well on dextrin plates; HRP anti-M13 antibody, TMB. The source says:
For screening libraries to isolate binding moieties for parvovirus B19, a surrogate target was obtained, consisting of purified, recombinant B19 capsid proteins VP 1 and VP2 (VP1-VP2). Suitable preparations of VP1-VP2 can be made according to methods described in U.S. Pat. No. 5,498,413 or WO 91/12269, incorporated herein by reference. Prior to screening against phage display libraries, partially purified VP1-VP2 was immobilized on dextrin-coated microtiter wells (Recti-Bind™; Pierce Chemical Co.) and tested using standard ELISA techniques, to ensure that under the screening conditions there was a low background level of phage recovered.
From convergent screens of phage display libraries, eluted phage were propagated and 376 phage isolates were selected randomly and individually tested for binding to VP1-VP2 by standard ELISA techniques, using a polyclonal anti-phage antibody to detect bound phage. Briefly, VP1-VP2 (2 μl per well) was coated on dextrin plates, blocked with BSA, and individual phage isolates were added to the wells (50 μl, 10^9 pfu per well). After washing, bound phage were incubated with the detection anti-phage antibodies (100 μl per well HRP-conjugated anti-M13 antibody in PBS-Tween (Pharmacia Inc.)). […] The bound antibody was detected by adding 100 μl per well of two-component TMB (tetramethylbenzidine; Kirkegaard & Perry). […]
Background: ELISA stands for enzyme-linked immunosorbent assay.

In the next test the target is VP1-VP2 (Human parvovirus B19, UniProt P07299). Kind of test: Relative binding ELISA, constant phage against decreasing amounts of VP1-VP2. Conditions: signal interpolated at VP1-VP2 1:10 dilution; binding data normalized as percent of OD 630 nm. Here is the method:
Based on the ELISA data and the sequence similarities within each library, the 18 isolates (Tables 1-3) were selected and evaluated further with respect to their binding characteristics to VP1-VP2. Relative binding of each isolate was studied by ELISA. Each selected phage isolate, held at a constant amount, was contacted with decreasing amounts per well of VP1-VP2, the amounts coating each dextrin well varying from 2 μl down to 0.001 μl. Bound phage were detected as described before using polyclonal anti-phage antibody. […] Using VP1-VP2 at 1:10 dilution as an arbitrary point, a value for the signal was interpolated, and the relative binding strengths are reflected in Tables 1-3, above.

For “A F C W L W P G N C L H (AFCWLWPGNCLH; not fully specified; cysteine pairing not given here) [C01]”, in test [1], the ELISA signal came out at 1.5. In the test with VP1-VP2, this sequence had a relative binding of 44.
